Test results published in paper PMC6857237, “Design and structural characterisation of olfactomedin-1 variants as tools for functional studies” (BMC Molecular and Cell Biology, 2019).

Target: the molecule itself
Experiment: SEC-MALS; analytical Superdex200 Increase 10/300, room temperature, SEC buffer (150 mM NaCl, 2 mM CaCl2, 20 mM HEPES pH 7.5), 0.5 mL/min; aldolase as calibration standard

B1: Olfm1^coil-Olf (olfactomedin-1 part of the coiled coil plus Olfactomedin domain, residues 212–478), disulfide-linked dimer (domain or fragment, mouse (Mus musculus))
chain: GSSNLEERLRACMQKLACGKLTGISDPVTVKTSGSRFGSWMTDPLAPEGDNRVWYMDGYHNNRFVREYKSMVDFMNTDNFTSHRLPHPWSGTGQVVYNGSIYFNKFQSHIIIRFDLKTEAILKTRSLDYAGYNNMYHYAWGGHSDIDLMVDENGLWAVYATNQNAGNIVISKLDPVSLQILQTWNTSYPKRSAGEAFIICGTLYVTNGYSGGTKVHYAYQTNASTYEYIDIPFQNKYSHISMLDYNPKDRALYAWNNGHQTLYNVTLFHAAA
modifications: N-linked glycans (8 per dimer, GntI-/- cells); inter-chain disulfide Cys221-Cys221; for crystallisation deglycosylated with Endo-H
notes: N-terminal residues left by the restriction site in the mature protein; Olfactomedin-1 (Olfm1), mouse, BMZ isoform cDNA as template, residues 212-478 (UNIPROT numbering); C-terminal VIRSDEL not included; includes Cys221; Only about a third of the expressed sample formed the disulfide-linked dimer; the dimer fraction was isolated by SEC and used; Secreted with a cystatin signal peptide (not in the …)
- stoichiometry N: 2
